± gives the uncertainty stated by the source.
Experiment: self-splicing fitness, log relative to wild type (ln ratio); higher = more splicing; Tetrahymena group I intron in knt gene, E. coli kanamycin selection, DiMSum; sequences stand for … in CUCUCU…GGAGGGAAAAGUUAUCAGGCAUGCACCUGGUAGCUAGUCUUUAAACCAAUAGAUUGCAUCGGUUUAAAAGGCAAGACCGUCAAAUUGCGGGAAAGGGGUCAACAGCCGUUCAGUACCAAGUCUCAGGGGAAACUUUGAGAUGGCCUUGCAAAGGGUAUGGUAAUAAGCUGACGGACAUGGUCCUAACCACGCAGCCAAGUCCUAAGUCAACAGAUCUUCUGUUGAUAUGGAUGCAGUUCACAGACUAAAUGUCGGUCGGGGAAGAUGUAUUCUUCUCAUAAGAUAUAGUCGGACCUCUCCUUAAUGGGAGCUAGCGGAUGAAGUGAUGCAACACUGGAGCCGCUGGGAACUAAUUUGUAUGCGAAAGUAUAUUGAUUAGUUUUGGAGUACUCGUGGUCG
Summary of the method: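 Colonies from six replicate transformations of E. coli BL21(DE3) were pooled and amplicon-sequenced on an Illumina HiSeq 2500. The library placed an intron with all eight P1ex-region nucleotides randomised inside the knt kanamycin-resistance gene on pET-22b(+), and cells grew overnight at 37°C or 30°C on LB agar with or without 25 μg/mL kanamycin (plus 100 μg/mL carbenicillin, 50 μM IPTG, 0.2% rhamnose). Fitness is the DiMSum error-weighted combination of wild-type-normalised replicate fold changes, kanamycin versus none.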

| Sequence | self-splicing fitness (ln) (30 °C) | self-splicing fitness (ln) (37 °C) |
| --- | --- | --- |
| UAUCAGCAAUAUUACGGCGC | -2.69 ± 0.18 | -1.12 ± 0.21 |
| UAUCAGCAAUAUUACGGCGG | -0.918 ± 0.086 | 0.373 ± 0.093 |
| UAUCAGCAAUAUUACGGGAU | -3.78 ± 0.24 | -1.72 ± 0.14 |
| UAUCAGCAAUAUUACGGGCA | -0.0174 ± 0.066 | 0.193 ± 0.084 |
| UAUCAGCAAUAUUACGGGGA | -1.76 ± 0.094 | -0.643 ± 0.1 |
| UAUCAGCAAUAUUACGGGGC | -2.85 ± 0.18 | -2.59 ± 0.19 |
| UAUCAGCAAUAUUACGGGGG | -1.51 ± 0.092 | -1.11 ± 0.14 |
| UAUCAGCAAUAUUACGUAGC | -2.63 ± 0.16 | -1.42 ± 0.2 |
| UAUCAGCAAUAUUACGUAUU | -0.834 ± 0.078 | -0.815 ± 0.094 |
| UAUCAGCAAUAUUACGUCAC | -4 ± 0.31 | -1.83 ± 0.3 |
| UAUCAGCAAUAUUACGUCCG | -0.361 ± 0.11 | 0.121 ± 0.14 |
| UAUCAGCAAUAUUACGUCGC | – | -2.03 ± 0.33 |
| UAUCAGCAAUAUUACGUCUA | -0.033 ± 0.078 | 0.747 ± 0.1 |
| UAUCAGCAAUAUUACGUGUG | -0.333 ± 0.058 | 0.407 ± 0.076 |
| UAUGAGCAAUAUUACGAAAU | -3.68 ± 0.37 | – |
| UAUGAGCAAUAUUACGAAUU | -2.36 ± 0.33 | -1.73 ± 0.32 |
| UAUGAGCAAUAUUACGACGA | -1.87 ± 0.36 | -1.62 ± 0.34 |
| UAUGAGCAAUAUUACGAGAC | -2.85 ± 0.39 | -2.4 ± 0.32 |
| UAUGAGCAAUAUUACGAGAU | – | -2.19 ± 0.3 |
| UAUGAGCAAUAUUACGAGCU | -2.71 ± 0.2 | -2.09 ± 0.42 |
| UAUGAGCAAUAUUACGAGUU | -3.21 ± 0.17 | -2.57 ± 0.24 |
| UAUGAGCAAUAUUACGAUAG | -2.31 ± 0.35 | -0.767 ± 0.38 |
| UAUGAGCAAUAUUACGAUAU | -3.47 ± 0.26 | -2.02 ± 0.36 |
| UAUGAGCAAUAUUACGAUCG | -1.79 ± 0.12 | -0.568 ± 0.12 |
| UAUGAGCAAUAUUACGAUGG | -3.59 ± 0.29 | -0.796 ± 0.23 |

| Sequence | self-splicing fitness (ln) (30 °C) | self-splicing fitness (ln) (37 °C) |
| --- | --- | --- |
| UAUGAGCAAUAUUACGCAUG | -2.53 ± 0.11 | -1.76 ± 0.15 |
| UAUGAGCAAUAUUACGCCUU | -3.19 ± 0.29 | -2.11 ± 0.34 |
| UAUGAGCAAUAUUACGCGAA | -1.62 ± 0.18 | -0.947 ± 0.32 |
| UAUGAGCAAUAUUACGGCAC | -2.09 ± 0.28 | – |
| UAUGAGCAAUAUUACGGCUU | – | -1.62 ± 0.32 |
| UAUGAGCAAUAUUACGGUCA | -2.22 ± 0.25 | -1.65 ± 0.25 |
| UAUGAGCAAUAUUACGUCAG | -2.82 ± 0.14 | -2.51 ± 0.2 |
| UAUGAGCAAUAUUACGUCCU | -2.35 ± 0.23 | -2.19 ± 0.49 |
| UAUGAGCAAUAUUACGUCGG | -2.86 ± 0.23 | -2.18 ± 0.2 |
| UAUGAGCAAUAUUACGUCUA | -0.497 ± 0.1 | -0.408 ± 0.13 |
| UAUGAGCAAUAUUACGUGCU | -3.7 ± 0.32 | -2.39 ± 0.34 |
| UAUGAGCAAUAUUACGUUGA | -2.96 ± 0.26 | -1.25 ± 0.17 |
| UAUGAGCAAUAUUACGUUUA | -2.59 ± 0.24 | -1.94 ± 0.14 |
| UAUGAGCAAUAUUACGUUUC | -3.66 ± 0.4 | -1.67 ± 0.32 |
| UAUUAGCAAUAUUACGACAC | -1.54 ± 0.14 | -1.92 ± 0.21 |
| UAUUAGCAAUAUUACGCACC | -2.77 ± 0.26 | -0.337 ± 0.2 |
| UAUUAGCAAUAUUACGCCUA | -0.107 ± 0.15 | -0.038 ± 0.14 |
| UAUUAGCAAUAUUACGGAAG | -2.63 ± 0.31 | -1.9 ± 0.25 |
| UAUUAGCAAUAUUACGGAUG | -0.629 ± 0.09 | -0.294 ± 0.12 |
| UAUUAGCAAUAUUACGGCUA | -0.404 ± 0.15 | 0.399 ± 0.14 |
| UAUUAGCAAUAUUACGGGCC | -2.84 ± 0.42 | – |
| UAUUAGCAAUAUUACGGGGA | -2.39 ± 0.22 | -0.989 ± 0.18 |
| UAUUAGCAAUAUUACGGUUU | -3.75 ± 0.37 | -2.08 ± 0.2 |
| UAUUAGCAAUAUUACGUAAG | -2.05 ± 0.18 | -1.41 ± 0.25 |
| UAUUAGCAAUAUUACGUCAG | -1.84 ± 0.1 | -0.992 ± 0.12 |

| Sequence | self-splicing fitness (ln) (30 °C) | self-splicing fitness (ln) (37 °C) |
| --- | --- | --- |
| UAUUAGCAAUAUUACGUCCG | -0.732 ± 0.16 | -0.925 ± 0.19 |
| UAUUAGCAAUAUUACGUCGU | -2.82 ± 0.28 | -3.02 ± 0.32 |
| UAUUAGCAAUAUUACGUCUU | -1.86 ± 0.14 | -0.681 ± 0.15 |
| UCAAAGCAAUAUUACGAACA | -1.41 ± 0.18 | -0.524 ± 0.15 |
| UCAAAGCAAUAUUACGACUU | -4 ± 0.23 | -2.36 ± 0.17 |
| UCAAAGCAAUAUUACGAGGG | -2.11 ± 0.12 | -1.03 ± 0.12 |
| UCAAAGCAAUAUUACGAGUU | -4.25 ± 0.31 | -2.28 ± 0.19 |
| UCAAAGCAAUAUUACGCAGG | -4.07 ± 0.2 | -2.2 ± 0.14 |
| UCAAAGCAAUAUUACGCCCA | -1.32 ± 0.14 | -0.49 ± 0.16 |
| UCAAAGCAAUAUUACGCCGC | -3.89 ± 0.39 | -1.67 ± 0.42 |
| UCAAAGCAAUAUUACGCCGG | -0.974 ± 0.13 | 0.015 ± 0.15 |
| UCAAAGCAAUAUUACGCGUA | -0.554 ± 0.1 | -0.355 ± 0.099 |
| UCAAAGCAAUAUUACGCUCC | – | -2.37 ± 0.48 |
| UCAAAGCAAUAUUACGGAAG | -2.03 ± 0.17 | -2.38 ± 0.28 |
| UCAAAGCAAUAUUACGGACG | -1.16 ± 0.079 | -0.282 ± 0.1 |
| UCAAAGCAAUAUUACGGCAG | -1.24 ± 0.12 | 0.177 ± 0.16 |
| UCAAAGCAAUAUUACGGCUU | -5.11 ± 0.45 | -2.32 ± 0.2 |
| UCAAAGCAAUAUUACGGGAA | -1.5 ± 0.15 | -0.928 ± 0.16 |
| UCAAAGCAAUAUUACGGGCA | -0.629 ± 0.063 | -0.273 ± 0.069 |
| UCAAAGCAAUAUUACGGGUC | -3.59 ± 0.23 | -3.14 ± 0.25 |
| UCAAAGCAAUAUUACGGUGU | -2.8 ± 0.11 | -1.31 ± 0.099 |
| UCAAAGCAAUAUUACGUAGA | -1.47 ± 0.082 | -0.85 ± 0.098 |
| UCAAAGCAAUAUUACGUAGC | -4 ± 0.31 | -2.52 ± 0.27 |
| UCAAAGCAAUAUUACGUCAU | -2.36 ± 0.14 | -2.71 ± 0.2 |
| UCAAAGCAAUAUUACGUCCA | -1.19 ± 0.13 | -0.715 ± 0.13 |

| Sequence | self-splicing fitness (ln) (30 °C) | self-splicing fitness (ln) (37 °C) |
| --- | --- | --- |
| UCAAAGCAAUAUUACGUGAC | -3.36 ± 0.12 | -2.15 ± 0.16 |
| UCAAAGCAAUAUUACGUGAU | -3.95 ± 0.17 | -2.64 ± 0.21 |
| UCAAAGCAAUAUUACGUUGG | -3.81 ± 0.18 | -3 ± 0.24 |
| UCAAAGCAAUAUUACGUUGU | -3.4 ± 0.13 | -2.02 ± 0.12 |
| UCACAGCAAUAUUACGAACA | -1.58 ± 0.1 | -1.64 ± 0.11 |
| UCACAGCAAUAUUACGAACG | -1.61 ± 0.18 | -1.19 ± 0.21 |
| UCACAGCAAUAUUACGAAGA | -1.18 ± 0.085 | -1.09 ± 0.093 |
| UCACAGCAAUAUUACGAAUC | – | -1.26 ± 0.17 |
| UCACAGCAAUAUUACGACUA | -1.21 ± 0.14 | -0.431 ± 0.12 |
| UCACAGCAAUAUUACGAGUC | -2.97 ± 0.15 | -3.01 ± 0.2 |
| UCACAGCAAUAUUACGAUCA | -1.45 ± 0.091 | -0.503 ± 0.088 |
| UCACAGCAAUAUUACGAUGA | -1.29 ± 0.1 | -0.136 ± 0.11 |
| UCACAGCAAUAUUACGCGAC | -3.43 ± 0.21 | -2.51 ± 0.26 |
| UCACAGCAAUAUUACGCGCG | -0.645 ± 0.089 | -0.233 ± 0.11 |
| UCACAGCAAUAUUACGCUCA | -1.61 ± 0.14 | -0.171 ± 0.12 |
| UCACAGCAAUAUUACGCUGU | -2.88 ± 0.16 | -2.19 ± 0.24 |
| UCACAGCAAUAUUACGGAUC | -4.77 ± 0.46 | -3.11 ± 0.33 |
| UCACAGCAAUAUUACGGCCA | -1.78 ± 0.28 | -1.19 ± 0.21 |
| UCACAGCAAUAUUACGGGAG | -3.75 ± 0.17 | -3.24 ± 0.22 |
| UCACAGCAAUAUUACGGUGU | -2.41 ± 0.17 | -2.23 ± 0.14 |
| UCACAGCAAUAUUACGUAUG | -0.949 ± 0.063 | -1.54 ± 0.099 |
| UCACAGCAAUAUUACGUCAU | -3.09 ± 0.17 | -1.43 ± 0.12 |
